# B1: WTAP^130–241 (domain or fragment, human, UniProt Q15007 130-241, looked up)
# chain: QTKDKLEQAQNELSAWKFTPDSQTGKKLMAKCRMLIQENQELGRQLSQGRIAQLEAELALQKKYSEELKSSQDELNDFIIQLDEEVEGMQSTILVLQQQLKETRQQLAQYQQ
# notes: WTAP, human, residues 130-241; density assigned for residues 150-241; also called WTAP alone; WTAP^150–241 (assigned density); source: Escherichia coli expression system
# B2: WTAP^1–273 (domain or fragment, human, UniProt Q15007 1-273, looked up)
# chain: MTNEEPLPKKVRLSETDFKVMARDELILRWKQYEAYVQALEGKYTDLNSNDVTGLRESEEKLKQQQQESARRENILVMRLATKEQEMQECTTQIQYLKQVQQPSVAQLRSTMVDPAINLFFLKMKGELEQTKDKLEQAQNELSAWKFTPDSQTGKKLMAKCRMLIQENQELGRQLSQGRIAQLEAELALQKKYSEELKSSQDELNDFIIQLDEEVEGMQSTILVLQQQLKETRQQLAQYQQQQSQASAPSTSRTTASEPVEQSEATSKDCSRL
# notes: probably the baculovirus-insect cell system used for the other complexes; also called WTAPA; WTAPB
# Experiments:
# [1] = molecular target: the molecule itself; assay: crystal structure; WTAP 130-241 alone, 2.40 Å
# [2] = molecular target: T1, METTL14 (human, UniProt Q9HCE5 1-456); assay: SEC; gel filtration analysis of the purified, co-expressed METTL3–METTL14–WTAP 1-273–VIRMA 381-1486 complex; details: both partners purified
# T1 construct: METTL14, human; also called MTC core subunit; source: baculovirus-insect cell expression system, co-expressed, purified
# T1 sequence (looked up): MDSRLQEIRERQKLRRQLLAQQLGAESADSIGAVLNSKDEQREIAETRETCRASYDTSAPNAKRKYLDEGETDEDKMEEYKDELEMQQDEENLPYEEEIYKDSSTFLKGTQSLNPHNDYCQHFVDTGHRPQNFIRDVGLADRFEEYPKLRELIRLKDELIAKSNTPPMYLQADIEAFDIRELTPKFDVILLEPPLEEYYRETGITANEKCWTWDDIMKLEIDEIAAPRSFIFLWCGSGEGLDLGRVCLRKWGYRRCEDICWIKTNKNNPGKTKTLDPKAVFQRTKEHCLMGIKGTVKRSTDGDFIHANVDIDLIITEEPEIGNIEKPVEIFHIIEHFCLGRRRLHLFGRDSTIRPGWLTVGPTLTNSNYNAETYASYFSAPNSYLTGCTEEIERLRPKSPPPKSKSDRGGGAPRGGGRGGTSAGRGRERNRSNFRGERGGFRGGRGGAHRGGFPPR
# [3] = molecular target: the molecule itself; assay: cryo-EM structure; METTL3–METTL14–WTAP 1-273–VIRMA 381-1486 complex, gradient fixation, 3.1 Å; only WTAP 171-237 and VIRMA 381-1292 seen
# [4] = molecular target: T2, VIRMA^381–1486 (human, UniProt Q69YN4 381-1486); assay: as above; details: both partners purified
# T2 construct: probably the baculovirus-insect cell system used for the other complexes
# T2 sequence (looked up): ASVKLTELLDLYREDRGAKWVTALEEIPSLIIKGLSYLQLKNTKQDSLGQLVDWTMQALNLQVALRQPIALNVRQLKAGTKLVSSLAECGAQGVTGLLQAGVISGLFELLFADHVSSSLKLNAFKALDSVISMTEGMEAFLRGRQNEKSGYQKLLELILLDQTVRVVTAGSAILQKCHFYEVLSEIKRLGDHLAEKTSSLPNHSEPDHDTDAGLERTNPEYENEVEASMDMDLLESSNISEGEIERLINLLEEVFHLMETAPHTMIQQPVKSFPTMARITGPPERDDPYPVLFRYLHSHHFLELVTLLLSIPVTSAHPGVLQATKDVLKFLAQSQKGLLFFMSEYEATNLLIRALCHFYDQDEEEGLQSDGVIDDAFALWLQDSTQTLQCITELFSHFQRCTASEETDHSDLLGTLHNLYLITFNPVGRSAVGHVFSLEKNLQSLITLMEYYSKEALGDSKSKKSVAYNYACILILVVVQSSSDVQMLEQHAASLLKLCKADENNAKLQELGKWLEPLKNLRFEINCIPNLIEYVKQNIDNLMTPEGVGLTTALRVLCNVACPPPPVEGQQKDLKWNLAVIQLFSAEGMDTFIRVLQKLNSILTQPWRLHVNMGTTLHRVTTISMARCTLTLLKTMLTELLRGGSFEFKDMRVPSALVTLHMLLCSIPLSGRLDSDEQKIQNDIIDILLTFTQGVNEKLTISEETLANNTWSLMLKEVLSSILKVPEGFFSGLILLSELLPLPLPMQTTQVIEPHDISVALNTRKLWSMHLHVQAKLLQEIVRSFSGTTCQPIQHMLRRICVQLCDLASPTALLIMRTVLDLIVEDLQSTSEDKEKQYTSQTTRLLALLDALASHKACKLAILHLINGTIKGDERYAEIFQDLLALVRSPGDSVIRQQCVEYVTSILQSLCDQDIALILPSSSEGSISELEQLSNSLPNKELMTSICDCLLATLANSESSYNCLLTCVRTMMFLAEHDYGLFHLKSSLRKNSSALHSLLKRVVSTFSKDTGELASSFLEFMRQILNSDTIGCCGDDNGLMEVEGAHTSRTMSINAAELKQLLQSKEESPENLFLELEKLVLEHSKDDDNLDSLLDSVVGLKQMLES
# [5] = molecular target: T3, METTL3 (human, UniProt Q86U44 1-580); assay: cross-linking; in vitro CXMS of the quaternary M–M–W–V complex with BS3, FDR < 5%; details: both partners purified
# T3 construct: METTL3, human; The same molecule is used for the co-purifications, the gel filtration and the cross-linking; also called MTC core subunit; source: baculovirus-insect cell expression system, co-expressed, purified
# T3 sequence (Q86U44 whole entry): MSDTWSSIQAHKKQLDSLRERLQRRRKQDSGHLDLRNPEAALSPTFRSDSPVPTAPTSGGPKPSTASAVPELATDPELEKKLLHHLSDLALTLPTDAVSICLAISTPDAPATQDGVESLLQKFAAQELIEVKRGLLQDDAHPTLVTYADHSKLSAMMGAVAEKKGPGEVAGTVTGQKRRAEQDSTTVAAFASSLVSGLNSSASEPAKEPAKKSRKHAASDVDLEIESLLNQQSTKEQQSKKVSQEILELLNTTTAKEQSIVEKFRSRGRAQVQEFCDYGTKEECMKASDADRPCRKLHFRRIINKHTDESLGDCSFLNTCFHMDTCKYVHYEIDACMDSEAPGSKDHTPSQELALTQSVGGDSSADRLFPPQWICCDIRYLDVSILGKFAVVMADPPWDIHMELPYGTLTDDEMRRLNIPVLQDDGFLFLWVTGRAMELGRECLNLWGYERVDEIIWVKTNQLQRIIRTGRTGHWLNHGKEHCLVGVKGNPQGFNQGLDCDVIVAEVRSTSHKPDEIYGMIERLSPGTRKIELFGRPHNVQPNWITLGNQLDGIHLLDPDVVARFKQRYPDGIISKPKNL
binder,measurement,setting,value
B1,stoichiometry N,[1],2
B2,binding result,[2],binds
same,stoichiometry N,[3],2
same,stoichiometry N,[4],2 WTAP:VIRMA
same,binding result,[5],binds

# — publication PMC9715571 (Cell Research, 2022)
